{"source": "patent US20200199204A1", "about": "(UNITED STATES OF AMERICA AS REPRESENTED BY THE SECRETARY …, published 2020)", "assay_in_all_cases": "cell-based or functional assay", "key": {"[1]": {"molecular_target": "HIV-1 Env of CAP256.SU (HIV-1)"}, "[2]": {"molecular_target": "HIV-1 Env of Q461.e2 (HIV-1)"}, "[3]": {"molecular_target": "HIV-1 Env of DU422.01 (HIV-1)"}, "[4]": {"molecular_target": "HIV-1 Env of 6535.3 (HIV-1)"}, "[5]": {"molecular_target": "HIV-1 Env of Q842.d12 (HIV-1)"}, "[6]": {"molecular_target": "HIV-1 Env of DU172.17 (HIV-1)"}, "[7]": {"molecular_target": "HIV-1 Env of Q259.d2.17 (HIV-1)"}, "[8]": {"molecular_target": "HIV-1 Env of Q23.17 (HIV-1)"}, "[9]": {"molecular_target": "HIV-1 Env of CAP244.D3 (HIV-1)"}, "[10]": {"molecular_target": "HIV-1 Env of TH976.17 (HIV-1)"}, "[11]": {"molecular_target": "HIV-1 Env of KER2008.12 (HIV-1)"}, "[12]": {"molecular_target": "HIV-1 Env of RHPA.7 (HIV-1)"}, "[13]": {"molecular_target": "HIV-1 Env of MB201 (HIV-1)"}, "[14]": {"molecular_target": "HIV-1 Env of C1080.c3 (HIV-1)"}, "[15]": {"molecular_target": "HIV-1 Env of ZM197.7 (HIV-1)"}, "[16]": {"molecular_target": "HIV-1 Env of MB539.2B7 (HIV-1)"}, "[17]": {"molecular_target": "HIV-1 Env of QH0692.42 (HIV-1)"}, "[18]": {"molecular_target": "Env of SIVmac251.30 (SIV (SIVmac251))"}, "[19]": {"molecular_target": "HIV-1 Env of ZM109.4 (HIV-1)"}, "[20]": {"molecular_target": "HIV-1 Env of CM244.ec1 (HIV-1)"}, "[21]": {"molecular_target": "HIV-1 Env of REJO.67 (HIV-1)"}, "[22]": {"molecular_target": "HIV-1 Env of CAP256.PI (HIV-1)"}, "[23]": {"molecular_target": "HIV-1 Env of BG505.w6m (HIV-1)"}, "[24]": {"molecular_target": "HIV-1 Env of Q769.d22 (HIV-1)"}, "[25]": {"molecular_target": "HIV-1 Env of ZM135.10a (HIV-1)"}, "[26]": {"molecular_target": "HIV-1 Env of Q168.a2 (HIV-1)"}, "[27]": {"molecular_target": "HIV-1 Env of CNE3 (HIV-1)"}, "[28]": {"molecular_target": "HIV-1 Env of ZM214.15 (HIV-1)"}, "[29]": {"molecular_target": "HIV-1 Env of CAP210.E8 (HIV-1)"}, "[30]": {"molecular_target": "HIV-1 Env of TRO.11 (HIV-1)"}, "[31]": {"molecular_target": "HIV-1 Env of DU156.12 (HIV-1)"}, "[32]": {"molecular_target": "HIV-1 Env of ZM249.1 (HIV-1)"}, "[33]": {"molecular_target": "HIV-1 Env of THRO.18 (HIV-1)"}, "[34]": {"molecular_target": "HIV-1 Env of SC422.8 (HIV-1)"}, "[35]": {"molecular_target": "HIV-1 Env of CAAN.A2 (HIV-1)"}, "[36]": {"molecular_target": "HIV-1 Env of 96ZM651.02 (HIV-1)"}, "[37]": {"molecular_target": "HIV-1 Env of PVO.04 (HIV-1)"}, "[38]": {"molecular_target": "HIV-1 Env of WITO.33 (HIV-1)"}, "[39]": {"molecular_target": "HIV-1 Env of RW020.2 (HIV-1)"}, "[40]": {"molecular_target": "HIV-1 Env of UG037.8 (HIV-1)"}, "[41]": {"molecular_target": "HIV-1 Env of 0260.v5.c36 (HIV-1)"}, "[42]": {"molecular_target": "HIV-1 Env of AC10.29 (HIV-1)"}, "[43]": {"molecular_target": "HIV-1 Env of TRJO.58 (HIV-1)"}, "[44]": {"molecular_target": "HIV-1 Env of 6405.v4.c34 (HIV-1)"}}, "data": [{"binder": "CAP256-VRC26.25 (antibody, V domains shown) VH: QVQLVESGGGVVQPGTSLRLSCAASQFRFDGYGMHWVRQAPGKGLEWVASISHDGIKKYHAEKVWGRFTISRDNSKNTLYLQMNSLRPEDTALYYCAKDLREDECEEWWSDYYDFGKQLPCAKSRGGLVGIADNWGQGTMVTVSS VL: QSVLTQPPSVSAAPGQKVTISCSGNTSNIGNNFVSWYQQRPGRAPQLLIYETDKRPSGIPDRFSASKSGTSGTLAITGLQTGDEADYYCATWAASLSSARVFGTGTQVIVLG", "values": [{"measurement": "IC50 (neutralization, TZM-bl)", "setting": "[1]", "value": 1, "unit": "ng/mL"}, {"measurement": "IC50 (neutralization, TZM-bl)", "setting": "[2]", "value": 7, "unit": "ng/mL"}, {"measurement": "IC50 (neutralization, TZM-bl)", "setting": "[3]", "value": 3, "unit": "ng/mL"}, {"measurement": "IC50 (neutralization, TZM-bl)", "setting": "[4]", "value": "> 50", "unit": "µg/mL"}, {"measurement": "IC50 (neutralization, TZM-bl)", "setting": "[5]", "value": 5, "unit": "ng/mL"}, {"measurement": "IC50 (neutralization, TZM-bl)", "setting": "[6]", "value": "> 50", "unit": "µg/mL"}, {"measurement": "IC50 (neutralization, TZM-bl)", "setting": "[7]", "value": 2, "unit": "ng/mL"}, {"measurement": "IC50 (neutralization, TZM-bl)", "setting": "[8]", "value": 1, "unit": "ng/mL"}, {"measurement": "IC50 (neutralization, TZM-bl)", "setting": "[9]", "value": "> 50", "unit": "µg/mL"}, {"measurement": "IC50 (neutralization, TZM-bl)", "setting": "[10]", "value": 0.106, "unit": "µg/mL"}, {"measurement": "IC50 (neutralization, TZM-bl)", "setting": "[11]", "value": 5, "unit": "ng/mL"}, {"measurement": "IC50 (neutralization, TZM-bl)", "setting": "[12]", "value": "> 50", "unit": "µg/mL"}, {"measurement": "IC50 (neutralization, TZM-bl)", "setting": "[13]", "value": "> 50", "unit": "µg/mL"}, {"measurement": "IC50 (neutralization, TZM-bl)", "setting": "[14]", "value": 4, "unit": "ng/mL"}, {"measurement": "IC50 (neutralization, TZM-bl)", "setting": "[15]", "value": 2, "unit": "ng/mL"}, {"measurement": "IC50 (neutralization, TZM-bl)", "setting": "[16]", "value": 0.186, "unit": "µg/mL"}, {"measurement": "IC50 (neutralization, TZM-bl)", "setting": "[17]", "value": "> 50", "unit": "µg/mL"}, {"measurement": "IC50 (neutralization, TZM-bl)", "setting": "[18]", "value": "> 50", "unit": "µg/mL"}, {"measurement": "IC50 (neutralization, TZM-bl)", "setting": "[19]", "value": 1, "unit": "ng/mL"}, {"measurement": "IC50 (neutralization, TZM-bl)", "setting": "[20]", "value": 0.092, "unit": "µg/mL"}, {"measurement": "IC50 (neutralization, TZM-bl)", "setting": "[21]", "value": "> 50", "unit": "µg/mL"}, {"measurement": "IC50 (neutralization, TZM-bl)", "setting": "[22]", "value": 1.33, "unit": "µg/mL"}, {"measurement": "IC50 (neutralization, TZM-bl)", "setting": "[23]", "value": 1, "unit": "ng/mL"}, {"measurement": "IC50 (neutralization, TZM-bl)", "setting": "[24]", "value": "> 50", "unit": "µg/mL"}, {"measurement": "IC50 (neutralization, TZM-bl)", "setting": "[25]", "value": "> 50", "unit": "µg/mL"}, {"measurement": "IC50 (neutralization, TZM-bl)", "setting": "[26]", "value": 1, "unit": "ng/mL"}, {"measurement": "IC50 (neutralization, TZM-bl)", "setting": "[27]", "value": "> 50", "unit": "µg/mL"}, {"measurement": "IC50 (neutralization, TZM-bl)", "setting": "[28]", "value": 6, "unit": "ng/mL"}, {"measurement": "IC50 (neutralization, TZM-bl)", "setting": "[29]", "value": 1, "unit": "ng/mL"}, {"measurement": "IC50 (neutralization, TZM-bl)", "setting": "[30]", "value": "> 50", "unit": "µg/mL"}, {"measurement": "IC50 (neutralization, TZM-bl)", "setting": "[31]", "value": 2, "unit": "ng/mL"}, {"measurement": "IC50 (neutralization, TZM-bl)", "setting": "[32]", "value": 1, "unit": "ng/mL"}, {"measurement": "IC50 (neutralization, TZM-bl)", "setting": "[33]", "value": 19.8, "unit": "µg/mL"}, {"measurement": "IC50 (neutralization, TZM-bl)", "setting": "[34]", "value": 47.2, "unit": "µg/mL"}, {"measurement": "IC50 (neutralization, TZM-bl)", "setting": "[35]", "value": "> 50", "unit": "µg/mL"}, {"measurement": "IC50 (neutralization, TZM-bl)", "setting": "[36]", "value": 0.173, "unit": "µg/mL"}, {"measurement": "IC50 (neutralization, TZM-bl)", "setting": "[37]", "value": 0.072, "unit": "µg/mL"}, {"measurement": "IC50 (neutralization, TZM-bl)", "setting": "[38]", "value": "> 50", "unit": "µg/mL"}, {"measurement": "IC50 (neutralization, TZM-bl)", "setting": "[39]", "value": "> 50", "unit": "µg/mL"}, {"measurement": "IC50 (neutralization, TZM-bl)", "setting": "[40]", "value": "> 50", "unit": "µg/mL"}, {"measurement": "IC50 (neutralization, TZM-bl)", "setting": "[41]", "value": 6.54, "unit": "µg/mL"}, {"measurement": "IC50 (neutralization, TZM-bl)", "setting": "[42]", "value": 0.077, "unit": "µg/mL"}, {"measurement": "IC50 (neutralization, TZM-bl)", "setting": "[43]", "value": "> 50", "unit": "µg/mL"}, {"measurement": "IC50 (neutralization, TZM-bl)", "setting": "[44]", "value": "> 50", "unit": "µg/mL"}]}]}
